experiment: soluble on expression in E. coli; label from the status in PepcDB or PDB records

Sequence	soluble on expression in E. coli
MQFEERLQQLVESDWSLDQSSPNVLVIVLGDTARKYVELGGLKEHVTTNTVAGHVASRERVSVVFLGRVKYLYMYLTRMQAQANGPQYSNVLVYGLWDLTATQDGPQQLRYLALCYGSASVCHLKLNSIQNRLLVACLPGYCDSGTILSDSCIVLHAIS	not soluble
RDTCVTLLLDNSGSMRGRPISIAAICADVLARTLERCQVKVEILGFTTRAWKGGQSREKWLAAGRPQQPGRLNDLRHIVYKGADAPWRRARENLGLMMKEGLLKENIDGEALEWAHRRLSSRAETRKILMVISDGAPVDDSTLSVNPASYLEKHLRDVIAMVERKRQVELIAIGIGHDVTRYYARAVTITDVEQLAGAMTEQLASLFDADPKKRIGKRRVA	not soluble
MVLLLRYRSLTINLTPLIPKSQKFHTLQSFRNPNFISIPKISASTNNPTTTTNRSISDATKFAKSVLFIPPGVEIEELTDDMVLPGSNIVIGPFAGHSQIKEVEFVKSSARARDCPKDDRPEIAILGRSNVGKSSLINCLVRKKEVALTSKKPGKTQLINHFLVNKSWYIVDLPGYGFAKVSDAAKTDWSAFTKGYFLNRDSLVCVLLLIDASVPPQKIDLDCANWLGRNNVPMTFVFTKCDKMKATKGKRPDENIKAFQQIIRENFKVHPPWILTSSVSGLGRDELLLHMSQLRNYWDQ	not soluble
MTRMKYLVAAATLSLFLAGCSGSKEEVPDNPPNEIYATAQQKLQDGNWKQAITQLEALDNRYPFGPYSQQVQLDLIYAYYKNADLPLAQAAIDRFMRLNPTHPNIDYVMYMRGLTNMALDDSALQGFFGVDRSDRDPQHARAAFNDFSKLVRSYPNSQYTTDATKRLVFLKDRLAKYEYSVAEYYTARGAWVAVVNRVEGMLRNYPDTQATRDALPLMENAYRQMQLNAQADKVAKIIAANSKNT	not soluble
MNDSILEPKHRGNVREIAAIDLGSNSFHMIVARIVNGSIQVLSRLKQKVKLAEGLDENAVLNQEAITRGVNCLALFAERLQGFPMENVNVVGTYTLRRAVNNDEFLRQAAKVFPYPINIISGQTEAKTIYAGVCHTQPEKGRKLVIDIGGGSTEMIIGDDFTPLMAESRHMGCVSFATQFFTDGIISPENFQRARQSAVNKIEDLGLEYRKLGWQSVLGSSGTIKTVAQVIATNLDPNGTITAERLNALIEQTLQAKHFTELNINGLNQDRVDVFVPGLAILSAVFDVFHIQQMRYSDGALREGVIYSLEKNFQVADIRASTALEHHHHHH	not soluble
MMHQLYPQVAHHYRYELNKDMHIAAAHFIPHEAAGSCANVHGHTYIVNVTIAGDELDESGFLVNFQTLKQLVHRKLDHTLLNDHSDWFDGHDPNRFPTSEVVARTIYETIQRYLDTLPHKPKCLQVFVRETPTSYVVYRPKAGER	soluble
QFLQKQHFLILGLAKSGYAAASILHEKGIYVAVNDQKPFEENEPAQKLSEKGIEVVCGEHPVSLFDQHQITILIKNPGIPYENIMVQEAEKRGIPVW	not soluble
MGSDKIHHHHHHMQTTTALRLYGKRDLRLETFTLPAMQDDEILARVVTDSLCLSSWKEANQGADHKKVPDDVATRPIIIGHEFCGEILAVGKKWQHKFQPGQRYVIQANLQLPDRPDCPGYSFPWIGGEATHVVIPNEVMAQDCLLTWEGDTWFEGSLVEPLSCVIGAFNANYHLQEGSYNHVMGIRPQGHTLILGGTGPMGLLAIDYALHGPINPSLLVVTDTNKPKLSYARRHYPSEPQTLIHYLDGHEASRDTLLALSGGHGFDDIFVFVPNEQLITLASSLLAPDGCLNFFAGPQDKQFSAPINFYDVHYAFTHYVGTSGGNTDDMRAAVALMQAKKVQTAKVVTHILGLNAAGETTLDLPAVGGGKKLVYTGKAFPLTPLGEIADPELAAIVARHHGIWSQDAEAYLLAHAEDITHD	not soluble
MGSDKIHHHHHHMAFKNLKELSFEKSNYIKPKRFAYESNGRLCTWDFIESKDSVSVLLYHKELESFIFVRQFRIPLWYHQMHDKDYVKDDDMGYTIELCSGLVDKKLSLEEIAKEECIEELGYAPKNLEKIGDFYTGFGSGVSKQSFYFVEVDEKDKISSGGGVDDEEIEAVYVKVQDFEKKCKNMIRTPLLDFAYMWFLKEKWGKLKII	not soluble
MGGSALNQGVLEGDDAPGQSLYERLSQRMLDISGDRGVLKDVIREGAGDLVAPDASVLVKYYGYLEHLDRPFDSNYFRKTPRLMKLGEDITLWGMELGLLSMQRGELARCFVLGKLLDSQGPSLHLYLRAS	not soluble
MAGTISDYGGRQQIWNLGNNIIDTKKLVDLELQALEMKKSPYTTQKQTLTNEKNVYASMKKEFGNLVQVFKDLYAFKGDEKKTTLSKDGFMKAQADAAAIPGTYTITVERVAERHQITTAPLTPSKTPESMEQKFSLDLKLGVDDVFQINGKEVKISKDMTYKDLVNKINNGNYGASVYTLGDQLFFTSTTAGEAGELKLTDGANGFLQNIGLVTSAKNPDGTNVVAHQVTGAINAEYTINGIKGTSKTNKIDTIPGLTINLEKETTEPIKLTIEDSDIKNSIDLIKKMKDEYNKAVKSLDLFAGENGVMQGSNVSFAINNAMTGIFKFSQDDKYLFSFGIQIDKKGNMTLDEEKLKTAFKENPESTKQFFFGLNGLGHDTEKKLDGIFGDEGIIGKRSKSIEKQVTDLERKIQDIDTVNKEKQKTIIDKYAKLESQLALLDSQLKTIQAMTKTKSDD	not soluble
MPAPLTFARLTQVDPNLITAHMRDPRLAIHMPLMPDSWSDAQTVSFVQSKEACWDRDGLGHWAFLHQDRYVGWGGFQREGEEWDFGLVLCPAHFGLGLPIARKALDFAHADPRIPFVTFLLPPSRQHLGALRRLGAQPLGETDHAGHRFLKFRLDTA	not soluble
MPAPEAPTSTLPPERPLTNLQQQIQQLVSRQPNLTAGLYFFNLDSGASLNVGGDQVFPAASTIKFPILVAFFKAVDEGRVTLQERLTMRPDLIAPEAGTLQYQKPNSQYAALEVAELMITISDNTATNMIIDRLGGAAELNQQFQEWGLENTVINNPLPDMKGTNTTSPRDLATLMLKIGQGEILSPRSRDRLLDIMRRTVTNTLLPAGLGKGATIAHKTGDIGIVVGDAGMVDMPNGQRYVAAMMVKRPYNDPRGSELIRQVSRMVYQAFEKLSPPEQKLISEEDLNSAVDHHHHHH	soluble
MLGLPPELGLRTYSARLLGSNPKLVLHGGGNTSVKLNINDLFGNPVQVMCIKGSGQDLATITASGHPAVRLAPLQQLKVLDHLSDEDMVNILRTNLLDCRAPTPSVEALLHAFVDRPVIDHTHAVAAMVIADQPDGDRLCRYIYGERVLWIPYVMSGFALSLAVERAFRAYPDAEGMLLGKHGLCTFGESAKASYERMITFVTLAENFIESRRAIYSPLEHHHHHH	not soluble
MRFTKTLFTTALFGASVFSFQSTAWADTLEQQFQQGSEATTRGDYQTTFKFLLPLAEQGNALAQMMLGVMYAKGQGVKQDDVEAVKWYRKAAEQGYADAQAMLGFSYLLGQSGVQVNKSLAKEWFGKACDNGDQNGCEYYGKLNRGEL	not soluble
APGVSTILDNRNNPIAWVYKQRRFEIPSEAIPQSMKDAIVSIEDRRFYEHKGVDIQGNLRAIVTNIFAGGVAQGASTIDQQYVKNFLLLVKSDNPEEQAAATETSIPRKLREMRMASTIDSTLSKDDILTRYLNLVHLGNGAFGVEAAARTYFGKGAPELSLAQSAMFAGIVQSSSY	not soluble
MSLRKDLSEKVLIADGAMGTLLYSYGVDRSFEELNLSHPEDIVAIHKAYIGAGADIIQTNTYGANYIKLARYGLEDEVKRINQAAIRLAKEAARGTGTYIFGTIGGINGAVDARLPAAPLEEIKRSFREQLYCFLLDGVDAILLETYYDLDELKTVLKILRETTDLPVVANVSMHEPGILQNGKKLPDALEELIALGADVVGINCRLGPYHMARALETVPLYDNAYLAVYPNASLPEMQEGKVIYQSDTDYFEHYGEVFRQEGARIIGGCCGTTPDHIRALRKGLETTKPILEKEVRPILELVPEEVEDVDSGERLLDKVKERLTILVELDPPRTFDTTKFFEGAQALDEAGVDAITISDNSLATPRISNMALASILKHEYGIKPLIHLTTRDHNLVGMHSHVMGFHKLGLHDVLAITGDPTKVGDFPGASSVFDLRSVELVQLIKKFNDGISYTGKSLKEKARFHVGAAFNPNVLNLEKAVRLIERKVEYGADYIITQPIYDVNKAILLKEALQKANIDVPLFIGVMPLLSSRNAEFLHNEVPGIRLTDDVRERMREAEEHGHANEEGMAIARELVDAICEHFQGIYIITPFLRYDLSIELAKYAQNKQQVQIGSKEGHHHHHH	soluble
SVKRKSSEGQEQDGGRGIPLPIQTFLWRQTSAFLRPKLGKQYEASCVSFERVLVENKLHGLSPALSEAIQSISRWELVQAALPHVLHCTATLLSNRNKLGHQDKLGVAETKLLHTLHWMLLEAPQDCNNERFGGTDRGSSWGGSSSAFIHQVENQGSPGQPCQSSSNDEEENNRRKIFQNSMATAELFVFLFAPLVHRIKESDLTFRLASGLVIWQPMWEHRQPGVSGFTALVKPIRNIITAKRSSPINSQSRTCESPNQDARHLEGLQVVRETFQSDSISPKATISGCHRGNSFDGSLSSQTSQERGPSHSRSTFHFPP	soluble
MEFINNITIRARVAFYLAVAQKAFEGLSENDQGYLQADEALKQCWNWLKGKNISGDELCEYLENERDTGLMVYSSFVQGDPVKEPIWITIITALMYTIWQAYQIENEKYLPESIEQVDEGTIDILIEYAKKCANYDEHWIKLLENYLLEKYRTTNMNEVGIAILKDEIMGIR	soluble
MHHHHHHSSGVDLGTENLYFQSNAMMKAYQREFIEFALEKQVLKFGEFTLKSGRKSPYFFNAGLFNTGRDLARLGRFYAAALVDSGIEFDVLFGPAYKGIPIATTTAVALADHHDVDTPYCFNRKEAKNHGEGGNLVGSKLEGRVMLVDDVITAGTAIRESMELIQANKADLAGVLVAIDRQEKGKGELSAIQEVERDFGCAVISIVSLTDLITYLEQQGNNTEHLEAVKAYRAQYGI	soluble
MECSQEDVVNDFIALEKIGSEVDINLDGVIKSKECSNTNEADIISNLITAIEESLSCTSVCTAVSLETVAQKLDAYADPSLNTQMSFSTASDLSSMEQDYVKASDDPFDLNHQPSPLQVWRDQGKITGFQMMCDDQKVTVVDSLECLAQSEQHLEPVYFDPRVNLAIPCPPDDFEILEDYGSTSNASVNSDDASTAELGPTSEEFEEWVRKIEQNY	not soluble
GPGSMPHSMDTTLFSDENRIDRGDSLLFHCVQLSQGGTDSHRYFFGCYFPRWRGFYMDEARELPGPLGYNVTRHFPAFPFDVYLKDDGEHFLTDDFQIGSIFTLGGPLNQRDDGQKRYKVVHCDDSQLRTRTGKTLAFIGNNVSGLLQQTHRVSGEAIDALKRIREAYIFNVGNGIPEVGIKAMGRHFRKVGSDGRRWMSYEGIVRFVKDSRNFNATLSFSDTQRTEEDVNTVATCIYNAFPKNEEECIDYDFFMDYVRGPMSQERKDAVWNIFRRMDYDRDGNLNIIDIQACYNTQDHPTCSVDHLFQSDKMLKGFLTIWDENERCGLVPYAEFLDYYNGVSAVLEDDKVFFDVLNNQWKLL	soluble
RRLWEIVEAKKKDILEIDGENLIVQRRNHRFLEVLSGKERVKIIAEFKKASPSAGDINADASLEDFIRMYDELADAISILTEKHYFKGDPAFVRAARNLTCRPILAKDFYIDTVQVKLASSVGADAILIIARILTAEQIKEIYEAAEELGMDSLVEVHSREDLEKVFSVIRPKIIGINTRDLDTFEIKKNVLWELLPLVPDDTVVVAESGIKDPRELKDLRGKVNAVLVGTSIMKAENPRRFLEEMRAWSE	soluble
